In publication PMC8164019 (Methods in molecular biology (Clifton, N.J.), 2020):

Biological target: the molecule itself
Assay: negative-stain EM

B1: MxB after cleavage of the MBP tag by HRV-3C protease (natural protein, human, UniProt P20592 1-715, looked up)
chain: MSKAHKPWPYRRRSQFSSRKYLKKEMNSFQQQPPPFGTVPPQMMFPPNWQGAEKDAAFLAKDFNFLTLNNQPPPGNRSQPRAMGPENNLYSQYEQKVRPCIDLIDSLRALGVEQDLALPAIAVIGDQSSGKSSVLEALSGVALPRGSGIVTRCPLVLKLKKQPCEAWAGRISYRNTELELQDPGQVEKEIHKAQNVMAGNGRGISHELISLEITSPEVPDLTIIDLPGITRVAVDNQPRDIGLQIKALIKKYIQRQQTINLVVVPCNVDIATTEALSMAHEVDPEGDRTIGILTKPDLMDRGTEKSVMNVVRNLTYPLKKGYMIVKCRGQQEITNRLSLAEATKKEITFFQTHPYFRVLLEEGSATVPRLAERLTTELIMHIQKSLPLLEGQIRESHQKATEELRRCGADIPSQEADKMFFLIEKIKMFNQDIEKLVEGEEVVRENETRLYNKIREDFKNWVGILATNTQKVKNIIHEEVEKYEKQYRGKELLGFVNYKTFEIIVHQYIQQLVEPALSMLQKAMEIIQQAFINVAKKHFGEFFNLNQTVQSTIEDIKVKHTAKAENMIQLQFRMEQMVFCQDQIYSVVLKKVREEIFNPLGTPSQNMKLNSHFPSNESSVSSFTEIGIHLNAYFLETSKRLANQIPFIIQYFMLRENGDSLQKAMMQILQEKNRYSWLLQEQSETATKRRILKERIYRLTQARHALCQFSSKEIH
**Q.** Does B1 bind?
**A.** binds
